Measured values taken from the supplement of paper PMC10126150.
± gives the standard deviation of the averaged measurements.

Tested on: ATP
Assay: switch fluorescence ratio, 500 uM ATP over buffer (Cy3 cluster intensity, sum of 5 cycles each) (fold (ratio)); higher = stronger signal-on switching upon ATP binding; sequences stand for … in TCGTCGGCAGCGTCAGATGTGTATAAGAGACAGTTTTTTTTTTTTTTTTTTTTTTTTT…TC
Details: aptamer strand: ATP DNA aptamer (quencher-CACCTGGGGGAGTATTGCGGAGGAAGG + anchor), 100 nM annealed; ATP concentration: 500 uM
Summary of the method: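 Per cluster, summed Cy3 intensity from the target cycles was divided by that from the buffer cycles to give the fluorescence ratio, then averaged per switch-domain sequence. Clusters outside 100-1000 RFU were excluded. The Cy3-labelled switching-strand clusters, on a modified Illumina MiSeq flow-cell, were annealed to 100 nM quencher-labelled ATP aptamer and imaged in selection buffer, then after 15 min with 500 uM ATP at 22 °C, for five cycles with NaOH stripping and re-annealing between them.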
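Further: ATP exposure 15 min at 22 °C before imaging.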

Sequence | switch fluorescence ratio
ATGAAGAGAG | 0.9897 ± 0.0069
ACCCGAGGTC | 1.09 ± 0.015
TTGACGTGTC | 1 ± 0.043
GTGGGTTTGC | 1.03 ± 0.03
GGGGTTTATA | 0.997 ± 0.026
TATACTTAGT | 1.025 ± 0.0036
TTTAAATAAA | 1 ± 0.017
CAGTTCATCG | 1.03 ± 0.025
CGAAAACTTT | 1.07 ± 0.064
ACATACCGTG | 1.21 ± 0.038
CGATTGGGTA | 0.968 ± 0.038
AGTAGCTCTC | 1.02 ± 0.013
TACGATGACT | 1.19 ± 0.11
GATGTAAACG | 1.02 ± 0.026
GACCAGTAAG | 0.9819 ± 0.0091
TTGTGCGGGA | 0.999 ± 0.013
TTGAGCATGG | 1.06 ± 0.051
GGTTTAGAGA | 1.02 ± 0.069
TAGTTGTGGT | 0.99 ± 0.034
GTGTGTCAGT | 0.964 ± 0.013
AGATATAATA | 1.02 ± 0.035
TAGATCTTAC | 1.05 ± 0.046
CGTCATATGC | 1.29 ± 0.073
ATGGTCTGCC | 0.974 ± 0.02
TTTTCAATGA | 0.994 ± 0.041

Sequence | switch fluorescence ratio
TGGTTCTGTG | 1.0262 ± 0.00041
GAAAGTGTGG | 0.971 ± 0.03
TGGTAACGGT | 1.09 ± 0.12
TTGTTGTTAT | 0.991 ± 0.017
CTTTGTTGG | 0.9646 ± 0.0024
GGGGTGCCGG | 0.977 ± 0.092
TGGTCTATGC | 1.05 ± 0.012
AGCCAGAAGT | 0.991 ± 0.022
CGTTTCAGCG | 0.952 ± 0.051
CGGGAGAAAT | 1.24 ± 0.34
GAGAGTGGTT | 0.998 ± 0.012
TTTTTATAAC | 1 ± 0.031
GCCGGATTGA | 1.02 ± 0.041
TGGGAATTTC | 1.035 ± 0.0034
GGGGCAGCTG | 1.06 ± 0.08
TTTTTGTATC | 0.968 ± 0.022
ACTGTGCTTT | 1.015 ± 0.0097
ACATATGGTA | 0.9801 ± 0.0085
CGTGTATTCT | 0.968 ± 0.034
TCGTTACCTT | 1.135 ± 0.0013
ATCAATGTCT | 0.994 ± 0.005
TGGTTGAGGT | 0.963 ± 0.028
CGGTACCGTG | 0.9844 ± 0.007
GCCCCGGGGG | 1.1 ± 0.046
AGGGCTTTGT | 1 ± 0.014

Sequence | switch fluorescence ratio
GAGGTTTTTT | 0.987 ± 0.021
ATTTCAATTT | 1.01 ± 0.02
GAATAACTAG | 0.9776 ± 0.0088
ATCTTGTGTC | 0.945 ± 0.02
GGGACAGCGT | 1.03 ± 0.025
TAAGTAGGGG | 0.981 ± 0.023
TGGCCTTATT | 0.992 ± 0.011
CAAATTTGC | 0.9315 ± 0.0035
GGGAGGGGCT | 1.02 ± 0.068
ATCGATTGTT | 1.01 ± 0.031
CCGGTTAAGG | 1 ± 0.05
CGGGGCTGCT | 1.01 ± 0.018
GCTTGGGTGC | 1.04 ± 0.067
TAGAGGGCAG | 1.03 ± 0.023
AGGGACCTTA | 1.04 ± 0.05
GGCTGAACGT | 1 ± 0.012
ATGATGGGGA | 0.987 ± 0.021
TAAGTCAGCT | 1 ± 0.032
AGGCCCTGTT | 0.989 ± 0.028
CTTTTTTGGT | 1.03 ± 0.015
TGAAGCTGGG | 1.07 ± 0.12
TAGGTCGGCC | 1.004 ± 0.0061
TTTTTTCTTG | 1.02 ± 0.034
TTTTACAGTA | 1.07 ± 0.022
CGAGTTTTTA | 0.994 ± 0.027

Sequence | switch fluorescence ratio
TTTTAATCCC | 1.07 ± 0.062
TCGAAGGGCG | 1.021 ± 0.0057
TATTTTTATA | 0.992 ± 0.017
TATTTTCGGT | 0.986 ± 0.021
TTATTTCCAC | 0.986 ± 0.013
TGAAATTTTG | 1.01 ± 0.015
TTCAAAACGT | 1.04 ± 0.017
CAGAGGGGGC | 1.012 ± 0.0071
CAGGGTCGGG | 0.966 ± 0.035
GATAACATAC | 1.368 ± 0.0047
TTTTCAAATA | 1.01 ± 0.061
CGGAAAGGGG | 0.978 ± 0.021
GGATCCTTTC | 1.23 ± 0.083
CGTAACGTGG | 0.9938 ± 0.0078
GGCAATTTTT | 0.992 ± 0.049
CTAAAAGGGA | 0.95 ± 0.033
TGGTGTAAGT | 1.007 ± 0.0052
CGGGAGGGGC | 1.02 ± 0.058
GGATAAGGAC | 0.984 ± 0.019
AGGAGCATTT | 1.04 ± 0.045
CATGATAGGT | 0.975 ± 0.057
TTGCGGGATG | 1.04 ± 0.051
GGTTCTGGGC | 0.9601 ± 0.0026
TTGGGGACAT | 0.98 ± 0.043
TGCTTTTGGG | 0.976 ± 0.0021

Sequence | switch fluorescence ratio
CACGTAAACG | 1.0351 ± 9.7e-05
TGGTTGCTCT | 0.9891 ± 0.008
CGTCTTTTAT | 0.9935 ± 0.0043
TTCGAGATCT | 1.16 ± 0.11
CACCAGTGCT | 1.621 ± 0.0094
AGGGGTAATA | 0.9817 ± 0.006
GGAGAGCATT | 1.039 ± 0.0091
TCAGGGTTTT | 1.01 ± 0.018
TGCTTTAGGT | 0.9922 ± 0.0092
AAGGGATCGG | 0.994 ± 0.024
AGTTAGTGGT | 0.978 ± 0.023
AGCTTGGAAA | 1 ± 0.031
CATAACGGGG | 0.957 ± 0.04
TTTTCCGCCC | 3.08 ± 2.9
GGGTTAAGAT | 0.997 ± 0.0054
GTGTTGTCGG | 1.01 ± 0.026
GTAGTGGGGG | 0.975 ± 0.027
CGTAGATTTT | 1 ± 0.046
TGCCCGCCCT | 1.08 ± 0.065
AAAGGGCTGC | 1.02 ± 0.13
TAAGTGTAAA | 0.986 ± 0.013
CGTAGTTGG | 0.988 ± 0.049
ATATGTGGAA | 1.015 ± 0.01
CTGAGAGACA | 0.991 ± 0.04
GATTTGGTTG | 0.963 ± 0.026

Sequence | switch fluorescence ratio
GGGGTTTCGT | 1.01 ± 0.067
AAGGTTTGCG | 1.01 ± 0.025
TGAAAGGGGG | 0.99 ± 0.014
GATTGAGTAG | 0.986 ± 0.016
TGCAGGGACG | 1 ± 0.03
ATGACTTGGG | 0.96 ± 0.011
AAAAATTATT | 1.006 ± 0.0065
TTGATGGCTA | 0.983 ± 0.021
ATCGGGGGA | 1.02 ± 0.051
CATTATATGT | 1.01 ± 0.046
CATGCTTTCC | 1.17 ± 0.26
ATTGGGGGGG | 1.02 ± 0.044
GTGTTAGATC | 0.98 ± 0.017
AGGCGCCGCA | 1.01 ± 0.018
AGAGAACGCT | 0.967 ± 0.035
TTTGGGAA | 1.03 ± 0.015
CGTGTTTTAG | 1 ± 0.033
CTTTCCGAAG | 2.72 ± 0.03
TATTCATGTT | 0.991 ± 0.029
GACGAACCGG | 1.051 ± 0.0095
CCGGGGGTGC | 1.24 ± 0.27
CAGAGGGGGA | 1.04 ± 0.036
TTTTTTGCCA | 1.01 ± 0.051
TGGGATGTTA | 0.9872 ± 0.0074
ATTATTTGGT | 1.01 ± 0.014

Sequence | switch fluorescence ratio
ATTTAAGGCT | 0.99 ± 0.012
TATGATAGCC | 1.04 ± 0.037
GAAGAATTGT | 0.991 ± 0.038
TTCCAGGGTG | 1.71 ± 0.92
GGGAATAGAG | 0.99 ± 0.035
CCGATACGGT | 1.08 ± 0.034
GGGTTGAACG | 0.967 ± 0.03
ATGGATTCTG | 1.07 ± 0.091
CCATTACGTT | 1.04 ± 0.05
TTTTTATACG | 0.984 ± 0.072
CAGGAAATTG | 1.02 ± 0.052
AGTACGGTGC | 1.02 ± 0.017
TGTCGACCG | 0.99 ± 0.014
TTAGGGCCTA | 0.9844 ± 0.0097
TTTTCTGTCG | 1.06 ± 0.063
GTGGAATTTT | 1.01 ± 0.0057
GGTGTGTGAC | 0.999 ± 0.016
AAAAGAGTAT | 1 ± 0.016
TATGTGTTGG | 0.992 ± 0.025
TAGTTGTTTA | 0.985 ± 0.046
ATTGAAGGGA | 1.018 ± 0.0059
AAATAGCTTT | 0.9909 ± 0.0026
CAGTTGGTTT | 0.97 ± 0.02
TATGAAACCG | 1.02 ± 0.086
TGTGTTAAAT | 1.04 ± 0.011

Sequence | switch fluorescence ratio
TTTAGTTGAC | 0.9956 ± 0.0092
AACGGGTATG | 1.011 ± 0.004
TAGTTGGGAT | 0.991 ± 0.029
TTAGCGCTTT | 0.9853 ± 0.0082
GTGGTGCGGA | 0.943 ± 0.052
TTTTGGTAAA | 1 ± 0.038
TTTGTTAATT | 0.996 ± 0.039
CCATTAATTT | 1.11 ± 0.17
GGGTTGAGCG | 1.02 ± 0.012
AAATTACGGG | 1.045 ± 0.0046
TATTTGGTCG | 1.02 ± 0.047
GGTAGATGGT | 1.01 ± 0.012
TGCCCTTCAT | 1.04 ± 0.011
CGCGGGGGTA | 0.995 ± 0.03
GATAGCCAAT | 1.02 ± 0.016
TTTGGTTATT | 1 ± 0.04
ATTGTTTTTG | 1.01 ± 0.026
GATGGGGGGC | 1.01 ± 0.043
GTTTTCTATG | 1 ± 0.021
TGCTGCGACG | 1.003 ± 0.0022
TTATATCCGT | 1.01 ± 0.031
CAAGTTAATT | 0.987 ± 0.011
AAAGCTCTGT | 0.992 ± 0.012
AAGGGGGCCA | 0.982 ± 0.074
ATGAGTTGGT | 0.982 ± 0.033
